This note sets out measurements from patent publication US20250376490A1, “C[…]-DERIVED PEPTIDE-NUCLEIC ACID HYBRID MOLECULE FOR TREATING INFECTION CAUSED BY MUTATED CORONAVIRUS” (priority 2022, published 2025).

The target of this assay is Omicron RBD (Severe acute respiratory syndrome coronavirus 2, UniProt P0DTC2, E484A/G339D/G446S/G496S/K417N/N440K/N501Y/Q493R/Q498R/S371L/S373P/S375F/S477N/T478K/Y505H).

With R7-02 (LGKGDFRK), the “RBD binding to highly mutated variant (Omicron) versus wild type” value was “most strongly recognized”.
